The target in the assay is human/mouse 5T4 chimera aa173-420 (human; mouse) (UniProt Q13641). The experiment in a line: flow cytometry, cells with human/mouse 5T4 chimera.
Chain of human/mouse 5T4 chimera aa173-420 (human; mouse) (Q13641 other isoform, or with tags, fused parts or gaps mutant limits assumed, form in doubt): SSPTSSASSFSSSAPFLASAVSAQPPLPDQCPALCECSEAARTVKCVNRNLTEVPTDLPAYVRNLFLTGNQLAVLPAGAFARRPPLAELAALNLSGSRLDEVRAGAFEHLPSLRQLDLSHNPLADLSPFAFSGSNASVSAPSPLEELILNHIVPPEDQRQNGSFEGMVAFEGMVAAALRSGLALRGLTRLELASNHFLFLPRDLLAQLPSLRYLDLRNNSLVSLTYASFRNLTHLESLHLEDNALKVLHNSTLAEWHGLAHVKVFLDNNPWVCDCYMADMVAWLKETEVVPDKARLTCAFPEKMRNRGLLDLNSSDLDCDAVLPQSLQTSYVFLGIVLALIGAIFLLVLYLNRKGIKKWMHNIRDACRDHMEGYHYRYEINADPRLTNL

B1: 1206/1207 (antibody, V domains shown)
VH: EVQLLESGGGLVQPGGSLRLSCAASGFTFSGSSMSWVRQAPGKGLEWVSSIYYSGSGTYYADSVKGRFTISRDNSKNTLYLQMNSLRAEDTAVYYCARYGRNVHPYNLDYWGQGTLVTVSS
VL: DIQMTQSPSSLSASVGDRVTITCRASQSISSYLNWYQQKPGKAPKLLIYAASSLQSGVPSRFSGSGSGTDFTLTISSLQPEDFATYYCQQGYYYLPTFGQGTKLEIK
The molecule B1 returned a normalized % positive cells of 0.3.

B2: 1212/1213 (antibody, V domains shown)
VH: EVQLLESGGGLVQPGGSLRLSCAASGFTFSSYAMSWVRQAPGKGLEWVSYISSYGGYTSYADSVKGRFTISRDNSKNTLYLQMNSLRAEDTAVYYCARYHSGVLDYWGQGTLVTVSS
VL: DIQMTQSPSSLSASVGDRVTITCRASQSISSYLNWYQQKPGKAPKLLIYAASSLQSGVPSRFSGSGSGTDFTLTISSLQPEDFATYYCQQYYYHYLLTFGQGTKLEIK
B2: the normalized % positive cells was -0.01.

Values taken from patent US20190169308A1.
